This is an account of results in the supplement of paper PMC3353916.

The subject of this data set is Sindbis virus TE/5'2J-GFP. Put plainly: percent infected (GFP+ in RFP+ ISG-expressing cells); higher = more infection (less antiviral activity). The protocol: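 Confirmatory testing of 87 ISGs. Triplicate wells of BHK/HA-Zeo (control) or BHK/NZAP-Zeo (ZAP) cells were transduced with lentiviruses co-expressing a human ISG plus TagRFP, then infected 48 h later with SINV TE/5'2J-GFP (moi 5). The % GFP+ cells among RFP+ cells was measured by flow cytometry at 8 h post infection. Fluc lentivirus served as control. Three independent experiments.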

Where [1] appears, read: experiment: confirmatory screen 1, BHK/HA-Zeo (control).
Setting [2] is: experiment: confirmatory screen 1, BHK/NZAP-Zeo (ZAP).
Where [3] appears, read: experiment: confirmatory screen 2, BHK/HA-Zeo (control).
[4] abbreviates: experiment: confirmatory screen 2, BHK/NZAP-Zeo (ZAP).
Setting [5] is: experiment: confirmatory screen 3, BHK/HA-Zeo (control).
[6] abbreviates: experiment: confirmatory screen 3, BHK/NZAP-Zeo (ZAP).

± gives the standard deviation of the averaged measurements.
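Further: Interferon-defective BHK-21 derivatives, ZAP line overexpressing the rat ZAP N-terminal zinc finger domain fused to Zeocin resistance, GFP scored within live singlet TagRFP+ cells.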

Regarding “MSLRGSLSRLLQTRVHSILKKSVHSVAVIGAPFSQGQKRKGVEHGPAAIREAGLMKRLSSLGCHLKDFGDLSFTPVPKDDLYNNLIVNPRSVGLANQELAEVVSRAVSDGYSCVTLGGDHSLAIGTISGHARHCPDLCVVWVDAHADINTPLTTSSGNLHGQPVSFLLRELQDKVPQLPGFSWIKPCISSASIVYIGLRDVDPPEHFILKNYDIQYFSMRDIDRLGIQKVMERTFDLLIGKRQRPIHLSFDIDAFDPTLAPATGTPVVGGLTYREGMYIAEEIHNTGLLSALDLVEVNPQLATSEEEAKTTANLAVDVIASSFGQTREGGHIVYDQLPTPSSPDESENQARVRI [ARG2]”, the percent infected reads like this: under setting [1], 93.279 ± 0.073%; under setting [2], 64 ± 4.9%; under setting [3], 95.82 ± 0.36%; under setting [4], 95.52 ± 0.29%; under setting [5], 92.68 ± 0.49%; under setting [6], 93.532 ± 0.087%.

On to “MGILYSEPICQAAYQNDFGQVWRWVKEDSSYANVQDGFNGDTPLICACRRGHVRIVSFLLRRNANVNLKNQKERTCLHYAVKKKFTFIDYLLIILLMPVLLIGYFLMVSKTKQNEALVRMLLDAGVEVNATDCYGCTALHYACEMKNQSLIPLLLEARADPTIKNKHGESSLDIARRLKFSQIELMLRKAL [ANKRD22]”, for which the percent infected by setting is: under setting [1], 96.94 ± 0.72%; under setting [2], 78.5 ± 1.2%; under setting [3], 96.41 ± 0.47%; under setting [4], 95.57 ± 0.16%; under setting [5], 93.15 ± 0.2%; under setting [6], 93.16 ± 0.36%.

In the case of “MDSRVSELFGGCCRPGGGPAVGGTLKARGAGSSSGCGGPKGKKKNGRNRGGKANNPPYLPPEAEDGNIEYKLKLVNPSQYRFEHLVTQMKWRLQEGRGEAVYQIGVEDNGLLVGLAEEEMRASLKTLHRMAEKVGADITVLREREVDYDSDMPRKITEVLVRKVPDNQQFLDLRVAVLGNVDSGKSTLLGVLTQGELDNGRGRARLNLFRHLHEIQSGRTSSISFEILGFNSKGEVVNYSDSRTAEEICESSSKMITFIDLAGHHKYLHTTIFGLTSYCPDCALLLVSANTGIAGTTREHLGLALALKVPFFIVVSKIDLCAKTTVERTVRQLERVLKQPGCHKVPMLVTSEDDAVTAAQQFAQSPNVTPIFTLSSVSGESLDLLKVFLNILPPLTNSKEQEELMQQLTEFQVDEIYTVPEVGTVVGGTLSSGICREGDQLVVGPTDDGCFLELRVCSIQRNRSACRVLRAGQAATLALGDFDRALLRKGMVMVSPEMNPTICSVFEAEIVLLFHATTFRRGFQVTVHVGNVRQTAVVEKIHAKDKLRTGEKAVVRFRFLKHPEYLKVGAKLLFREGVTKGIGHVTDVQAITAGEAQANMGF [GTPBP2]”, the percent infected is 91.5 ± 3.9% under setting [1]; 64.4 ± 1.3% under setting [2]; 94.39 ± 0.34% under setting [3]; 94.94 ± 0.23% under setting [4]; 94 ± 1.1% under setting [5]; 93.43 ± 0.41% under setting [6].

Regarding “MLRGISQLPAVATMSWVLLPVLWLIVQTQAIAIKQTPELTLHEIVCPKKLHILHKREIKNNQTEKHGKEERYEPEVQYQMILNGEEIILSLQKTKHLLGPDYTETLYSPRGEEITTKPENMEHCYYKGNILNEKNSVASISTCDGLRGYFTHHHQRYQIKPLKSTDEKEHAVFTSNQEEQDPANHTCGVKSTDGKQGPIRISRSLKSPEKEDFLRAQKYIDLYLVLDNAFYKNYNENLTLIRSFVFDVMNLLNVIYNTIDVQVALVGMEIWSDGDKIKVVPSASTTFDNFLRWHSSNLGKKIHDHAQLLSGISFNNRRVGLAASNSLCSPSSVAVIEAKKKNNVALVGVMSHELGHVLGMPDVPFNTKCPSGSCVMNQYLSSKFPKDFSTSCRAHFERYLLSQKPKCLLQAPIPTNIMTTPVCGNHLLEVGEDCDCGSPKECTNLCCEALTCKLKPGTDCGGDAPNHTTE [ADAMDEC1]”, the percent infected by setting is: under setting [1], 94 ± 2.1%; under setting [2], 66.9 ± 6.3%; under setting [3], 96.2 ± 0.17%; under setting [4], 95.52 ± 0.43%; under setting [5], 94.82 ± 0.19%; under setting [6], 94.56 ± 0.34%.

For “MLQRGLWPWRTRLLPTPGTWRPARPWPLPPPPQVLRVKLCGNVKYYQSHHYSTVVPPDEITVIYRHGLPLVTLTLPSRKERCQFVVKPMLSTVGSFLQDLQNEDKGIKTAAIFTADGNMISASTLMDILLMNDFKLVINKIAYDVQCPKREKPSNEHTAEMEHMKSLVHRLFTILHLEESQKKREHHLLEKIDHLKEQLQPLEQVKAGIEAHSEAKTSGLLWAGLALLSIQGGALAWLTWWVYSWDIMEPVTYFITFANSMVFFAYFIVTRQDYTYSAVKSRQFLQFFHKKSKQQHFDVQQYNKLKEDLAKAKESLKQARHSLCLQMQVEELNEKN [CCDC109B]”, the percent infected by setting is: under setting [1], 92.6 ± 2.3%; under setting [2], 57.4 ± 2%; under setting [3], 97.29 ± 0.17%; under setting [4], 95.61 ± 0.13%; under setting [5], 95.11 ± 0.48%; under setting [6], 93.64 ± 0.74%.

“MKVSAAALAVILIATALCAPASASPYSSDTTPCCFAYIARPLPRAHIKEYFYTSGKCSNPAVVFVTRKNRQVCANPEKKWVREYINSLEMS [CCL5]” showed a percent infected under setting [1] of 95.946 ± 0.068%; a percent infected under setting [2] of 69.5 ± 4.5%; a percent infected under setting [3] of 94.757 ± 0.09%; a percent infected under setting [4] of 93.5 ± 1.5%; a percent infected under setting [5] of 92.85 ± 0.85%; a percent infected under setting [6] of 93.25 ± 0.49%.

Consider “MALEIHMSDPMCLIENFNEQLKVNQEALEILSAITQPVVVVAIVGLYRTGKSYLMNKLAGKNKGFSVASTVQSHTKGIWIWCVPHPNWPNHTLVLLDTEGLGDVEKADNKNDIQIFALALLLSSTFVYNTVNKIDQGAIDLLHNVTELTDLLKARNSPDLDRVEDPADSASFFPDLVWTLRDFCLGLEIDGQLVTPDEYLENSLRPKQGSDQRVQNFNLPRLCIQKFFPKKKCFIFDLPAHQKKLAQLETLPDDELEPEFVQQVTEFCSYIFSHSMTKTLPGGIMVNGSRLKNLVLTYVNAISSGDLPCIENAVLALAQRENSAAVQKAIAHYDQQMGQKVQLPMETLQELLDLHRTSEREAIEVFMKNSFKDVDQSFQKELETLLDAKQNDICKRNLEASSDYCSALLKDIFGPLEEAVKQGIYSKPGGHNLFIQKTEELKAKYYREPRKGIQAEEVLQKYLKSKESVSHAILQTDQALTETEKKKKEAQVKAEAEKAEAQRLAAIQRQNEQMMQERERLHQEQVRQMEIAKQNWLAEQQKMQEQQMQEQAAQLSTTFQAQNRSLLSELQHAQRTVNNDDPCVLL [GBP5]”, for which the percent infected runs as follows: under setting [1], 95.4 ± 1.4%; under setting [2], 60 ± 5.7%; under setting [3], 97.28 ± 0.17%; under setting [4], 96.34 ± 0.093%; under setting [5], 87.3 ± 1.1%; under setting [6], 86.3 ± 0.93%.

Regarding “MHQSLTQQRSSDMSLPDSMGAFNRRKRNSIYVTVTLLIVSVLILTVGLAATTRTQNVTVGGYYPGVILGFGSFLGIIGSNLIENKRQMLVASIVFISFGVIAAFCCAIVDGVFAARHIDLKPLYANRCHYVPKTSQKEAEEVISSSTKNSPSTRVMRNLTQAAREVNCPHLSREFCTPRIRGNTCFCCDLYNCGNRVEITGGYYEYIDVSSCQDIIHLYHLLWSATILNIVGLFLGIITAAVLGGFKDMNPTLPALNCSVENTHPTVSYYAHPQVASYNTYYHSPPHLPPYSAYDFQHSGVFPSSPPSGLSDEPQSASPSPSYMWSSSAPPRYSPPYYPPFEKPPPYSP [FAM70A]”, the percent infected by setting is: under setting [1], 97.01 ± 0.45%; under setting [2], 75.9 ± 2.9%; under setting [3], 96.07 ± 0.48%; under setting [4], 95.55 ± 0.12%; under setting [5], 94.9 ± 0.5%; under setting [6], 94.05 ± 0.37%.

Regarding “MERISAFFSSIWDTILTKHQEGIYNTICLGVLLGLPLLVIITLLFICCHCCWSPPGKRGQQPEKNKKKKKKKKKKDEEDLWISAQPKLLQMEKRPSLPV [KIAA0040]”, the percent infected runs as follows: under setting [1], 93.9 ± 2.6%; under setting [2], 62.7 ± 0.84%; under setting [3], 96.75 ± 0.12%; under setting [4], 95.133 ± 0.042%; under setting [5], 87.2 ± 1.7%; under setting [6], 87.8 ± 1.6%.

As for “MSIMDHSPTTGVVTVIVILIAIAALGALILGCWCYLRLQRISQSEDEESIVGDGETKEPFLLVQYSAKGPCVERKAKLMTPNGPEVHG [SNN]”, the percent infected reads like this: under setting [1], 95.8 ± 1.9%; under setting [2], 86.47 ± 0.82%; under setting [3], 96.15 ± 0.19%; under setting [4], 95.59 ± 0.2%; under setting [5], 93.27 ± 0.64%; under setting [6], 92.87 ± 0.32%.

Take “MLLRSKPALPPPLMLLLLGPLGPLSPGALPRPAQAQDVVDLDFFTQEPLHLVSPSFLSVTIDANLATDPRFLILLGSPKLRTLARGLSPAYLRFGGTKTDFLIFDPKKESTFEERSYWQSQVNQDICKYGSIPPDVEEKLRLEWPYQEQLLLREHYQKKFKNSTYSRSSVDVLYTFANCSGLDLIFGLNALLRTADLQWNSSNAQLLLDYCSSKGYNISWELGNEPNSFLKKADIFINGSQLGEDFIQLHKLLRKSTFKNAKLYGPDVGQPRRKTAKMLKSFLKAGGEVIDSVTWHHYYLNGRTATKEDFLNPDVLDIFISSVQKVFQVVESTRPGKKVWLGETSSAYGGGAPLLSDTFAAGFMWLDKLGLSARMGIEVVMRQVFFGAGNYHLVDENFDPLPDYWLSLLFKKLVGTKVLMASVQGSKRRKLRVYLHCTNTDNPRYKEGDLTLYAINLHNVTKYLRLPYPFSNKQVDKYLLRPLGPHGLLSKSVQLNGLTLKMVDDQTLPPLMEKPLRPGSSLGLPAFSYSFFVIRNAKVAACI [HPSE]”: the percent infected by setting is: under setting [1], 97.15 ± 0.33%; under setting [2], 79.82 ± 0.76%; under setting [3], 96 ± 1.1%; under setting [4], 95.86 ± 0.27%; under setting [5], 90.1 ± 0.52%; under setting [6], 90.5 ± 1.7%.
